How the values were obtained:
[1] = target: prf.GLFG_(52×12), Nup98-type FG domain comprising 52 perfect 12mer GLFG repeat units; assay: FG phase partitioning
[2] = target: FG repeat domain of 669 residues with non-charged spacers and 36 FSFG motifs; assay: FG phase partitioning

20 nm T1 pentamer-only capsid spheres of HIV-1 CA G60A, G61P, labelled with ~15% CA-EGFP (complex)
partition coefficient [1]: 750

40 nm capsid spheres of HIV-1 CA N21C, A22C, labelled with ~15% CA-EGFP (complex)
partition coefficient [1]: 1000

EGFP
partition coefficient [1]: < 0.1

conical CLPs (capsid-like particles) of HIV-1 CA wild-type, labelled with ~15% CA-EGFP (complex)
partition coefficient [1]: 1000

conical CLPs of HIV-1 CA A88E, filled with sinGFP4a (complex)
fold reduction of partitioning against wild type [1]: > 10 fold

conical CLPs of HIV-1 CA A92E, filled with sinGFP4a (complex)
fold reduction of partitioning against wild type [1]: > 10 fold
partitioning relative to the wild-type level [1]: 5%

conical CLPs of HIV-1 CA G89V, filled with sinGFP4a (complex)
fold more effective entry than wild-type CLPs [2]: 4 fold

conical CLPs of HIV-1 CA G94D, filled with sinGFP4a (complex)
partitioning relative to the wild-type level [1]: 5%

conical CLPs of HIV-1 CA H87E, filled with sinGFP4a (complex)
fold reduction of partitioning against wild type [1]: 15 fold

conical CLPs of HIV-1 CA H87Q, filled with sinGFP4a (complex)
reduction in partitioning against wild type [1]: 50%

conical CLPs of HIV-1 CA I91E, filled with sinGFP4a (complex)
fold reduction of partitioning against wild type [1]: > 10 fold

conical CLPs of HIV-1 CA M96E, filled with sinGFP4a (complex)
fold reduction of partitioning against wild type [1]: > 10 fold

conical CLPs of HIV-1 CA R132K, filled with sinGFP4a (complex)
reduction in partitioning against wild type [1]: 50%

conical CLPs of HIV-1 CA V86E, filled with sinGFP4a (complex)
fold reduction of partitioning against wild type [1]: > 10 fold

mCherry
partition coefficient [1]: < 0.1
